# T1: ARHGAP21, Q5T5U3
# T1 sequence (Q5T5U3 45-169, limits assumed, looked up): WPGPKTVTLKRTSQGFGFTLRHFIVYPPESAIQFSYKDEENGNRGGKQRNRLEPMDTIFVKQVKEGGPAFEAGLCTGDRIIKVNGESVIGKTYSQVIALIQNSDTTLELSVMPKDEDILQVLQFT
# Legend:
# ARHGAP21, Q5T5U3 = target: T1, ARHGAP21, Q5T5U3; experiment: holdup assay; parameters: key: below the threshold = too weak to quantify, mostly under pKd 3.1 to 4
# GOPC, Q9HD26 = experiment: holdup assay; parameters: key: below the threshold = too weak to quantify, mostly under pKd 3.1 to 4
# [1] = plain residues with an end cap or a label only (N-terminal biotin on a linker: ttds)
# [2] = plain residues with an end cap or a label only (N-terminal biotin on a linker: ahx)
# [3] = plain residues with an end cap or a label only (N-terminal biotin on a linker: gsgsgs; C-terminal amide)
# [4] = plain residues with an end cap or a label only (N-terminal biotin on a linker: ado-ado)
binder,measurement,setting,value
"PVRVCEETSL [OTULIN, Q96BN8]",pKd,"ARHGAP21, Q5T5U3; [1]",4.2
same,pKd,"GOPC, Q9HD26; [1]",4.44
"NRKREIFSNF [NHERF2, Q15599]",pKd,"ARHGAP21, Q5T5U3; [2]",below the threshold
same,pKd,"GOPC, Q9HD26; [2]",below the threshold
"YGIVQETTFDLGGDIH [MLLT4_int, P55196]",pKd,"ARHGAP21, Q5T5U3; [3]",below the threshold
same,pKd,"GOPC, Q9HD26; [3]",below the threshold
"RRRKRKRTYL [HPV49-L2, P36762]",pKd,"ARHGAP21, Q5T5U3; [2]",3.6
same,pKd,"GOPC, Q9HD26; [2]",4.3
"RAVEEEESRF [PSCDBP, O60759]",pKd,"ARHGAP21, Q5T5U3; [2]",below the threshold
same,pKd,"GOPC, Q9HD26; [2]",below the threshold
"FHPLGADSQV [SLC2A1, P11166]",pKd,"ARHGAP21, Q5T5U3; [1]",below the threshold
same,pKd,"GOPC, Q9HD26; [1]",below the threshold
"VDFPPKESSL [ACVR2A, P27037]",pKd,"ARHGAP21, Q5T5U3; [1]",below the threshold
same,pKd,"GOPC, Q9HD26; [1]",3.45
"TVICWPGSLV [LNX2, Q8N448]",pKd,"ARHGAP21, Q5T5U3; [2]",below the threshold
same,pKd,"GOPC, Q9HD26; [2]",4.33
"PLSPEQPTKL [TRIM50, Q86XT4]",pKd,"ARHGAP21, Q5T5U3; [4]",below the threshold
same,pKd,"GOPC, Q9HD26; [4]",below the threshold
"SDSSGQEYSL [KCTD3, Q9Y597]",pKd,"ARHGAP21, Q5T5U3; [2]",below the threshold
same,pKd,"GOPC, Q9HD26; [2]",below the threshold
"HNAFLSVTTV [PDZRN4, Q6ZMN7]",pKd,"ARHGAP21, Q5T5U3; [2]",3.5
same,pKd,"GOPC, Q9HD26; [2]",3.6
"VSVDDVRSTSQGLSSY [DFNB31_int, Q9P202]",pKd,"ARHGAP21, Q5T5U3; [3]",below the threshold
same,pKd,"GOPC, Q9HD26; [3]",below the threshold
"GYDWGPATDL [TJP3, O95049]",pKd,"ARHGAP21, Q5T5U3; [2]",below the threshold
same,pKd,"GOPC, Q9HD26; [2]",3.93
"PRVKPQRSKV [PPP1R13L, Q8WUF5]",pKd,"ARHGAP21, Q5T5U3; [1]",below the threshold
same,pKd,"GOPC, Q9HD26; [1]",3.95
"KKYVDAETSL [SLC4A7, Q9Y6M7]",pKd,"ARHGAP21, Q5T5U3; [1]",below the threshold
same,pKd,"GOPC, Q9HD26; [1]",4.09
"LSDPSVSTVV [GRIN1, Q05586;Q05586-2]",pKd,"ARHGAP21, Q5T5U3; [2]",below the threshold
same,pKd,"GOPC, Q9HD26; [2]",below the threshold
"NDPAWDETNL [ARHGEF7, Q14155;Q14155-1]",pKd,"GOPC, Q9HD26; [1]",4.13
"ESLLLGPSNF [SHROOM4, Q9ULL8]",pKd,"ARHGAP21, Q5T5U3; [2]",below the threshold
same,pKd,"GOPC, Q9HD26; [2]",below the threshold
"EMDRRPATVV [PLCB4, Q15147]",pKd,"ARHGAP21, Q5T5U3; [1]",3.64
same,pKd,"GOPC, Q9HD26; [1]",4.04
"EVVHTPETSV [SLC16A3, O15427]",pKd,"ARHGAP21, Q5T5U3; [1]",below the threshold
same,pKd,"GOPC, Q9HD26; [1]",below the threshold
"DKDPHSETAL [TMIGD1, Q6UXZ0]",pKd,"ARHGAP21, Q5T5U3; [1]",below the threshold
same,pKd,"GOPC, Q9HD26; [1]",below the threshold
"PSASCAVTAA [PDLIM4, P50479;P50479-2]",pKd,"ARHGAP21, Q5T5U3; [2]",below the threshold
same,pKd,"GOPC, Q9HD26; [2]",below the threshold
